Assay results as given in US8598081B2, “Specific delivery of agrochemicals” (priority 2010, dated 2013).

B1: VHH 3E6: VHH binding gum arabic, potato lectin and leaf surface; SEQ ID NO:7 by order of the list (protein, listed as Lama glama)
VHH: QVQLQESGGGLVQPGGTLSLSCAASGFNVRWYGMGWFRQAPGKEREGVACISALQETTAYADSVKGRFTLSRDNPKNTLSLQMNNLQPEDTGVYYCATTDCDDSSRMTYTSYLGQGTQVTVSS
modifications: 3E6
B2: Microcapsules containing uvitex OB VHH 3E6: polyurea microcapsules containing the fluorescent tracer Uvitex OB, coupled with (monovalent) VHH 3E6 (conjugate)
VHH: QVQLQESGGGLVQPGGTLSLSCAASGFNVRWYGMGWFRQAPGKEREGVACISALQETTAYADSVKGRFTLSRDNPKNTLSLQMNNLQPEDTGVYYCATTDCDDSSRMTYTSYLGQGTQVTVSS
modifications: left off: small tags and cut ends
notes: polyurea microcapsules containing the fluorescent tracer Uvitex OB, coupled with (monovalent) VHH 3E6

How the values were obtained:
potato lectin = target: T1, potato lectin (Solanum tuberosum, UniProt Q9S8M0); test: VHH binding to potato lectin in ELISA; conditions: Table 2; Blank (no antigen coating); VHH 3 μg/ml
T1 construct: purchased Sigma
T1 sequence (Q9S8M0 whole entry, looked up): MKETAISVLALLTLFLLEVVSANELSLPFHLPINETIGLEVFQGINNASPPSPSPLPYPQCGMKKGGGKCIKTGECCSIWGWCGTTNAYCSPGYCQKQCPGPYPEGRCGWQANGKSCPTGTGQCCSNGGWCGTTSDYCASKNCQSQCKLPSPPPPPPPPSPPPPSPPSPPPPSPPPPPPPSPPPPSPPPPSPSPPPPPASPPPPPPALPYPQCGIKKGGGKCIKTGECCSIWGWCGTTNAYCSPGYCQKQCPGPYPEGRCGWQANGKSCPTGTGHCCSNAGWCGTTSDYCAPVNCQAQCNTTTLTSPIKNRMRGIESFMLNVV
Protocol: ELISA plates (Maxisorp, Nunc) coated with 100 μl per well 100 μg/ml potato lectin (Sigma) in PBS were coated at 4° C. overnight and coating was continued at room temperature for 1 hour on the next day. Plates were washed three times with PBS/0.05%-TWEEN®-20 and blocked with 5% skimmed milk in PBS for 1 hour. VHH (3 μg/ml) were transferred to the potato lectin-coated plates and VHH antibody fragments were allowed to bind for 1 hour at room temperature. Bound VHH were detected with sequential incubations with monoclonal mouse anti-histidine antibodies (Abd Serotec) and rabbit anti-mouse IgG whole molecule antibodies conjugated with alkaline phosphatase (RaM/AP) (Sigma) in 1% MPBS/0.05%-TWEEN®-20. Unbound antibodies were removed by washing three times with PBS/0.05%-TWEEN®-20 after each antibody incubation. The plates were washed an additional two times with PBS and 100 μl pNPP disodium hexahydrate substrate (Sigma) was added to each well and the absorbance at 405 nm was measured (see Table 2).

azalea leaf discs = test: Leaf disc binding assay with VHH-coupled microcapsules, azalea; conditions: Uvitex microcapsules
Protocol: A leaf disc binding assay was used to evaluate the interaction of VHH-coupled microcapsules with potato, grass and azalea leaves. ø 8 mm leaf discs were sampled from the leaves of potato pot plants (variety Desiree), from the leaves of greenhouse-grown Lollium perenne and from the leaves of azalea pot plants. Leaf discs were washed three times with PBS. Microcapsules containing lambda cyhalothrin or Uvitex were diluted to appropriate densities in 1% skimmed milk in PBS with 0.05%-TWEEN®-20. Microcapsules were added to the leaf discs and settling of microcapsules and binding of targeting agents allowed for 1 hour. Unbound microcapsules were removed by washing three to five times with PBS with 0.05%-TWEEN®-20.
Leaf discs with Uvitex microcapsules were analyzed for bound microcapsules on a macrozoom microscope system (Nikon). Microcapsules were counted using Volocity image analysis software (Perkin Elmer). A DAPI filter was used to visualize Uvitex microcapsules. Controls for Uvitex microcapsules included blank microcapsules to which no VHH were coupled and microcapsules to which unrelated VHH were coupled.

Molecule	absorbance at 405 nm (potato lectin)	specific binding of microcapsules to azalea leaf discs (azalea leaf discs)
B1	0.067	
B2		no specific binding
